Molecular target: SARS-CoV nucleocapsid (N) protein, full length, in the pM vector (pM-N) (SARS-CoV, UniProt P59595 1-422)
Test: two-hybrid

Chain of SARS-CoV nucleocapsid (N) protein, full length, in the pM vector (pM-N) (P59595 whole entry): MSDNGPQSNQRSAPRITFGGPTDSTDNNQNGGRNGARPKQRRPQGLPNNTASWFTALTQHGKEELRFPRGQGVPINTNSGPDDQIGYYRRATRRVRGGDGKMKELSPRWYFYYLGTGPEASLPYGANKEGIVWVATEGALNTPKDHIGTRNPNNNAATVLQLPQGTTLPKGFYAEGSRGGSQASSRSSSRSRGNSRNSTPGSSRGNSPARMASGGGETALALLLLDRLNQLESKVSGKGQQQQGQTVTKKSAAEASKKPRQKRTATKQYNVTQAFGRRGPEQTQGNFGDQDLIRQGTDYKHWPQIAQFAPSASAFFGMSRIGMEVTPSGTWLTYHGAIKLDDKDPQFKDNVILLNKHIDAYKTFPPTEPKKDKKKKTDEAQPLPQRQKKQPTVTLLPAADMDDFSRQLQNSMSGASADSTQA

B1: SARS-CoV membrane (M) protein in the pVP16 vector (pVP16-M) (natural protein)
chain: MADNGTITVEELKQLLEQWNLVIGFLFLAWIMLLQFAYSNRNRFLYIIKLVFLWLLWPVTLACFVLAAVYRINWVTGGIAIAMACIVGLMWLSYFVASFRLFARTRSMWSFNPETNILLNVPLRGTIVTRPLMESELVIGAVIIRGHLRMAGHSLGRCDIKDLPKEITVATSRTLSYYKLGASQRVGTDSGFAAYNRYRIGNYKLNTDHAGSNDNIALLVQ
  fold chemiluminescence (SEAP) over controls: > 5 fold
